From patent US20050003397A1

Target: BAT monoclonal antibody
Assay: competition phage ELISA; BAT (6 µg/ml) pre-incubated with increasing synthetic Peptide A, binding to immobilized Peptide A phage read

B1: Peptide A (synthetic peptide of SEQ ID NO 1) (peptide)
peptide: PRRIKPRKIMLQ
For B1, the IC50 was 660 nM.
